The labels stand for the following.
B1: Alpha-lactalbumin, P00712 (parent)
chain: MMSFVSLLLVGILFHATQAEQLTKCEVFQKLKDLKDYGGVSLPEWVCTAFHTSGYDTQAIVQNNDSTEYGLFQINNKIWCKDDQNPHSRNICNISCDKFLDDDLTDDIVCAKKILDKVGINYWLAHKALCSEKLDQWLCEKL

The data set covers variants of B1. To be noted: Capra hircus; pH 2; 20 °C; Urea; CD; NaCl-HCl 100 mM; structure 1HFY; whole UniProt chain shown.

As to T48I, the “ddG of mutation (higher = less stable)” value was -0.07 kcal/mol, the denaturant m value was 0.31 kcal/mol/M, the “denaturant midpoint (higher = more stable)” value (from here on “denaturant midpoint”) stood at 2.5 M and the unfolding free energy came to 0.77 kcal/mol.

Consider T52I, for which the “ddG of mutation (higher = less stable)” value was -0.32 kcal/mol, the denaturant m value was 0.39 kcal/mol/M, the “denaturant midpoint” value came out at 2.6 M and the unfolding free energy came out at 1.02 kcal/mol.

Regarding A49I, the “ddG of mutation (higher = less stable)” value is -0.3 kcal/mol, the denaturant m value was 0.33 kcal/mol/M, the “denaturant midpoint” value amounted to 3 M and the unfolding free energy is 1 kcal/mol.

As to A49T, the “ddG of mutation (higher = less stable)” value turned out to be 0.14 kcal/mol, the denaturant m value was 0.29 kcal/mol/M, the “denaturant midpoint” value turned out to be 1.9 M and the unfolding free energy is 0.56 kcal/mol.
